The source of these data is PMC12059018 (Nature Communications, 2025).

This assay has as its target T1, p53-ZF43 bait (UniProt P04637).
T1 construct: also called p53 bait; source: BHK-21, transfected, in cells
As to the kind of experiment: two-hybrid. The following applies: partners not purified.

T1 sequence (P04637 whole entry): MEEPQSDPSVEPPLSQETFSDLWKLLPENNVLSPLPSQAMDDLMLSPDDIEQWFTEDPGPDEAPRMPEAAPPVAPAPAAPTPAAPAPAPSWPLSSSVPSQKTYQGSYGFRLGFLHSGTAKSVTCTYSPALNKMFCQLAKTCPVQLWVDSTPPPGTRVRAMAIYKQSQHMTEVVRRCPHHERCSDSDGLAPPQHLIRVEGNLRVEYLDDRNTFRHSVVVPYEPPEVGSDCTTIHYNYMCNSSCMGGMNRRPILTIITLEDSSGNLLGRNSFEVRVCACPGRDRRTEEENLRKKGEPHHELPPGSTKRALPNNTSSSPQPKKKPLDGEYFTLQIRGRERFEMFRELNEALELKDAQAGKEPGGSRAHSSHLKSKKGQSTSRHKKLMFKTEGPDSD

B1: Nb139-VP64 (parental, NLS-containing fusion) (VHH)
VHH: QVQLQESGGGLVQAGGSLRLSCAASERTFSTYAMGWFRQAPGREREFLAQINWSGTTTYYAESVKDRTTISRDNAKNTVYLEMNNLNADDTGIYFCAAHPQRGWGSTLGWTYWGQGTQVTVSS
notes: also called Nb139[WT]; source: BHK-21, transfected, in cells
B1: the binding result is listed as “binds”.
